One test addresses GST-β2AR(330–413) (human, UniProt P07550 330-413). Briefly: pull-down.
The target of test [1] is FLAG-tagged human β2-adrenergic receptor (human, UniProt P07550 1-413). In words: pull-down.

No end group written: not given here.

As to EAISFLLSLIDRLVLY (also: FITC label, position not given here) [FITC-labeled peptide derived from human EGLN3(89–104)], the binding result in the test with GST-β2AR(330–413) is “binds”.
Regarding LRGDQITWIGGNEEGCEAISFLLSLIDRLVLYCGSRLGKYYVKE (domain or fragment, human, UniProt Q9H6Z9 73-116, looked up) [GST-EGLN3^(73-116)], the binding result in test [1] is on record as “binds”.

The values above are taken from article PMC2788937 (Science signaling, 2009).
